Measured values published in patent US20020042382A1 (UNITED STATES OF AMERICA AS REPRESENTED BY THE SECRETARY OF …, published 2002).

T1: Sequestrin GST-R(0-IV) fusion protein (Plasmodium falciparum)
T1 construct: The five domains R0-RIV are said to represent the entirety of amino acids H42-A458; also called domain combination R(0-IV); not shown: glutathione S-transferase fusion partner encoded by vector pGEX-3X (Pharmacia), followed by a Factor Xa site
T1 chain: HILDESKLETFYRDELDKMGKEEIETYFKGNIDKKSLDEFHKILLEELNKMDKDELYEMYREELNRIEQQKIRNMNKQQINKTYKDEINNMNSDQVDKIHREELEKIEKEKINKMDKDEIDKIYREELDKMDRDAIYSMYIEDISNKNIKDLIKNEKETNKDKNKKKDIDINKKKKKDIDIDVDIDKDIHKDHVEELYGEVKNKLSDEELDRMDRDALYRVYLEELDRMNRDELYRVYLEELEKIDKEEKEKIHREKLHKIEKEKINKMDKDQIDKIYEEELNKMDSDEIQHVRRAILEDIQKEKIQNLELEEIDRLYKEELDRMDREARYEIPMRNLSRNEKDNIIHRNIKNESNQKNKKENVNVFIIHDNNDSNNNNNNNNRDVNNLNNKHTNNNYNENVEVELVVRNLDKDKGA

B1: CD36 (purified) (receptor)
chain: GCDRNCGLIAGAVIGAVLAVFGGILMPVGDLLIQKTIKKQVVLEEGTIAFKNWVKTGTEVYRQFWIFDVQNPQEVMMNSSNIQVKQRGPYTYRVRFLAKENVTQDAEDNTVSFLQPNGAIFEPSLSVGTEADNFTVLNLAVAAASHIYQNQFVQMILNSLINKSKSSMFQVRTLRELLWGYRDPFLSLVPYPVTTTVGLFYPYNNTADGVYKVFNGKDNISKVAIIDTYKGKRNLSYWESHCDMINGTDAASFPPFVEKSQVLQFFSSDICRSIYAVFESDVNLKGIPVYRFVLPSKAFASPVENPDNYCFCTEKIISKNCTSYGVLDISKCKEGRPVYISLPHFLYASPDVSEPIDGLNPNEEEHRTYLDIEPITGFTLQFAKRLQVNLLVKPSEKIQVLKNLKRNYIVPILWLNETGTIGDEKANMFRSQVTGKINLLGLIEMILLSVGVVMFVAFMISYCACRSKTIK
modifications: 125I-labelled where used as probe
notes: Purified protein, a gift from Dr. N. Tandon; Used 125I-labelled in solution or coated on plates or dishes; also called 125I-CD36; radiolabelled human CD36
B2: trpE fusion protein representing Sequestrin amino acids H42-A458 (other)
chain: T1 chain
notes: Tested in a bacterial extract, blotted

Columns and labels:
[1] = target: T1, Sequestrin GST-R(0-IV) fusion protein; test: competition of 125I-CD36 binding to plate-coated GST-R(0-IV) by unlabeled CD36, gamma counting
radiolabeled ICAM-1 = radiolabeled ICAM-1 (UniProt P05362 28-532, radiolabelled); test: bacterial extracts blotted and probed with radiolabeled ICAM-1
Sequence of radiolabeled ICAM-1 (P05362 28-532 limits assumed): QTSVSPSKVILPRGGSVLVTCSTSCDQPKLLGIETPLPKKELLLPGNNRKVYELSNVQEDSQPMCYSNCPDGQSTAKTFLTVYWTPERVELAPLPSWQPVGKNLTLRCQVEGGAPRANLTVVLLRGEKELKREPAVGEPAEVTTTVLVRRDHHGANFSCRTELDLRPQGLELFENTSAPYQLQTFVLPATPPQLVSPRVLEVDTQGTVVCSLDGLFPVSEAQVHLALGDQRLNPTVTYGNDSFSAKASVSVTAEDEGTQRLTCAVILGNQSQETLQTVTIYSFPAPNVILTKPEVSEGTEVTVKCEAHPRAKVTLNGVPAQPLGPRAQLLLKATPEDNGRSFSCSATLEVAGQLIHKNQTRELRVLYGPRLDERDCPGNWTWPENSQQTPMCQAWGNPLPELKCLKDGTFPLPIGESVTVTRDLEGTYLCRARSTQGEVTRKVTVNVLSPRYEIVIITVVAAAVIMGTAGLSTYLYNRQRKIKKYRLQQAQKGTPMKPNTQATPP

Binder	Ki [1] [nM]	binding result (radiolabeled ICAM-1)
B1	~6	–
B2	–	no binding
